IntAct's records for PubMed 31515488

B1: Zinc finger protein RFP (Homo sapiens), P14373 (parent)
chain: MASGSVAECLQQETTCPVCLQYFAEPMMLDCGHNICCACLARCWGTAETNVSCPQCRETFPQRHMRPNRHLANVTQLVKQLRTERPSGPGGEMGVCEKHREPLKLYCEEDQMPICVVCDRSREHRGHSVLPLEEAVEGFKEQIQNQLDHLKRVKDLKKRRRAQGEQARAELLSLTQMEREKIVWEFEQLYHSLKEHEYRLLARLEELDLAIYNSINGAITQFSCNISHLSSLIAQLEEKQQQPTRELLQDIGDTLSRAERIRIPEPWITPPDLQEKIHIFAQKCLFLTESLKQFTEKMQSDMEKIQELREAQLYSVDVTLDPDTAYPSLILSDNLRQVRYSYLQQDLPDNPERFNLFPCVLGSPCFIAGRHYWEVEVGDKAKWTIGVCEDSVCRKGGVTSAPQNGFWAVSLWYGKEYWALTSPMTALPLRTPLQRVGIFLDYDAGEVSFYNVTERCHTFTFSHATFCGPVRPYFSLSYSGGKSAAPLIICPMSGIDGFSGHVGNHGHSMETSP
B2: Seipin (Homo sapiens), Q96G97-4 (parent)
chain: MSTEKVDQKEEAGEKEVCGDQIKGPDKEEEPPAAASHGQGWRPGGRAARNARPEPGARHPALPAMVNDPPVPALLWAQEVGQVLAGRARRLLLQFGVLFCTILLLLWVSVFLYGSFYYSYMPTVSHLSPVHFYYRTDCDSSTTSLCSFPVANVSLTKGGRDRVLMYGQPYRVTLELELPESPVNQDLGMFLVTISCYTRGGRIISTSSRSVMLHYRSDLLQMLDTLVFSSLLLFGFAEQKQLLEVELYADYRENSYVPTTGAIIEIHSKRIQLYGAYLRIHAHFTGLRYLLYNFPMTCAFIGVASNFTFLSVIVLFSYMQWVWGGIWPRHRFSLQVNIRKRDNSRKEVQRRISAHQPGPEGQEESTPQSDVTEDGESPEDPSGTEGQLSEEEKPDQQPLSGEEELEPEASDGSGSWEDAALLTEANLPAPAPASASAPVLETLGSSEPAGGALRQRPTCSSS
partner: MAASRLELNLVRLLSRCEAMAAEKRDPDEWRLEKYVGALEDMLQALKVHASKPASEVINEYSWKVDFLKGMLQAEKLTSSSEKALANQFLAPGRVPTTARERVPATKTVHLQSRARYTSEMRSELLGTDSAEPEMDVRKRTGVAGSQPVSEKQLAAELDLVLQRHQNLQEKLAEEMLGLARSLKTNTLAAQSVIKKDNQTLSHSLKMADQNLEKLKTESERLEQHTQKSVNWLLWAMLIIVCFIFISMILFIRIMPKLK
B3: Forkhead box protein P3 (Homo sapiens), Q9BZS1 (parent)
chain: MPNPRPGKPSAPSLALGPSPGASPSWRAAPKASDLLGARGPGGTFQGRDLRGGAHASSSSLNPMPPSQLQLPTLPLVMVAPSGARLGPLPHLQALLQDRPHFMHQLSTVDAHARTPVLQVHPLESPAMISLTPPTTATGVFSLKARPGLPPGINVASLEWVSREPALLCTFPNPSAPRKDSTLSAVPQSSYPLLANGVCKWPGCEKVFEEPEDFLKHCQADHLLDEKGRAQCLLQREMVQSLEQQLVLEKEKLSAMQAHLAGKMALTKASSVASSDKGSCCIVAAGSQGPVVPAWSGPREAPDSLFAVRRHLWGSHGNSTFPEFLHNMDYFKFHNMRPPFTYATLIRWAILEAPEKQRTLNEIYHWFTRMFAFFRNHPATWKNAIRHNLSLHKCFVRVESEKGAVWTVDELEFRKKRSQRPSRCSNPTPGP
B4: Protein boule-like (Homo sapiens), Q8N9W6 (parent)
chain: MQTDSLSPSPNPVSPVPLNNPTSAPRYGTVIPNRIFVGGIDFKTNESDLRKFFSQYGSVKEVKIVNDRAGVSKGYGFVTFETQEDAQKILQEAEKLNYKDKKLNIGPAIRKQQVGIPRSSIMPAAGTMYLTTSTGYPYTYHNGVAYFHTPEVTSVPPPWPSRSVCSSPVMVAQPIYQQPAYHYQATTQYLPGQWQWSVPQPSASSAPFLYLQPSEVIYQPVEIAQDGGCVPPPLSLMETSVPEPYSDHGVQATYHQVYAPSAITMPAPVMQPEPIKTVWSIHY
partner: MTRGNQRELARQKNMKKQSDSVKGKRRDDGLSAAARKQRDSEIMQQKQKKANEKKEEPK
B5: Peroxisomal bifunctional enzyme (Homo sapiens), Q08426 (parent)
chain: MAEYTRLHNALALIRLRNPPVNAISTTLLRDIKEGLQKAVIDHTIKAIVICGAEGKFSAGADIRGFSAPRTFGLTLGHVVDEIQRNEKPVVAAIQGMAFGGGLELALGCHYRIAHAEAQVGLPEVTLGLLPGARGTQLLPRLTGVPAALDLITSGRRILADEALKLGILDKVVNSDPVEEAIRFAQRVSDQPLESRRLCNKPIQSLPNMDSIFSEALLKMRRQHPGCLAQEACVRAVQAAVQYPYEVGIKKEEELFLYLLQSGQARALQYAFFAERKANKWSTPSGASWKTASARPVSSVGVVGLGTMGRGIVISFARARIPVIAVDSDKNQLATANKMITSVLEKEASKMQQSGHPWSGPKPRLTSSVKELGGVDLVIEAVFEEMSLKKQVFAELSAVCKPEAFLCTNTSALDVDEIASSTDRPHLVIGTHFFSPAHVMKLLEVIPSQYSSPTTIATVMNLSKKIKKIGVVVGNCFGFVGNRMLNPYYNQAYFLLEEGSKPEEVDQVLEEFGFKMGPFRVSDLAGLDVGWKSRKGQGLTGPTLLPGTPARKRGNRRYCPIPDVLCELGRFGQKTGKGWYQYDKPLGRIHKPDPWLSKFLSRYRKTHHIEPRTISQDEILERCLYSLINEAFRILGEGIAASPEHIDVVYLHGYGWPRHKGGPMFYASTVGLPTVLEKLQKYYRQNPDIPQLEPSDYLKKLASQGNPPLKEWQSLAGSPSSKL
partner: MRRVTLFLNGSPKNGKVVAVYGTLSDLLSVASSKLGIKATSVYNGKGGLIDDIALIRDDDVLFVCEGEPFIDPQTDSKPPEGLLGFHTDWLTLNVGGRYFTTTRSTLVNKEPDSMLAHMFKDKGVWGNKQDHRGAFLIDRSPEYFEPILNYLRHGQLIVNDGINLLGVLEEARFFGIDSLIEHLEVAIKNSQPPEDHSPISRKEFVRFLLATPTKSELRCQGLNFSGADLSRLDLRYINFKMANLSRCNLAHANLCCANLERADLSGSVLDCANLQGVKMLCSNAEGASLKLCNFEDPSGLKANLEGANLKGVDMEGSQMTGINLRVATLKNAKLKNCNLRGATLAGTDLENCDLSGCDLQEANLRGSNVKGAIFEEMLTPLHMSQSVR
B6: Protein FAM9B (Homo sapiens), Q8IZU0 (parent)
chain: MAAWGKKHAGKDPVRDECEERNRFTETREEDVTDEHGEREPFAETDEHTGANTKKPEDTAEDLTAKRKRMKMDKTCSKTKNKSKHALRKKQLKRQKRDYIHSLKLLNVLEEYITDEQKEEEEEEGEEEELIRIFQEQQKKWQQYRSVRRERLKEMKLLRDQFVKALEDFEDLCDRVFSDEDSELDN
partner: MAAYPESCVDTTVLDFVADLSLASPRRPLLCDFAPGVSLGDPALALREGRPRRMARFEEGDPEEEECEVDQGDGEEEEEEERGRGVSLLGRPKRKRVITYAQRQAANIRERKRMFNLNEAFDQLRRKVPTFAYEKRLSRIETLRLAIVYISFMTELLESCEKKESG
B7: Isoform 1 of Nuclear RNA export factor 3 (Homo sapiens), Q9H4D5-1 (parent)
chain: MSLPSGHTTGHTDQVVQRRARCWDIYQRRFSSRSEPVNPGMHSSSHQQQDGDAAMHGAHMDSPVRYTPYTISPYNRKGSFRKQDQTHVNMEREQKPPERRMEGNMPDGTLGSWFKITVPFGIKYNEKWLLNLIQNECSVPFVPVEFHYENMHASFFVENASIAYALKNVSGKIWDEDNEKISIFVNPAGIPHFVHRELKSEKVEQIKLAMNQQCDVSQEALDIQRLPFYPDMVNRDTKMASNPRKCMAASLDVHEENIPTVMSAGEMDKWKGIEPGEKCADRSPVCTTFSDTSSNINSILELFPKLLCLDGQQSPRATLCGTEAHKRLPTCKGSFFGSEMLKNLVLQFLQQYYLIYDSGDRQGLLSAYHDEACFSLSIPFNPEDSAPSSFCKFFKDSRNIKILKDPYLRGELLKHTKLDIVDSLSALPKTQHDLSSFLVDMWYQTEWMLCFSVNGVFKEVEGQSQGSVLAFTRTFIATPGSSSSLCIVNDKLFVRDTSHQGTQSALFTLVPTAFSSSVPAFSQEQQKMLPS
partner: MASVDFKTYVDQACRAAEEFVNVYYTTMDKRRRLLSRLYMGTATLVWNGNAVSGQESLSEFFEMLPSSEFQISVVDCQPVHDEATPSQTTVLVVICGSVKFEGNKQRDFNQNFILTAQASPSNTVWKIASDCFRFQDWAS
B8: G1/S-specific cyclin-D3 (Homo sapiens), P30281 (parent)
chain: MELLCCEGTRHAPRAGPDPRLLGDQRVLQSLLRLEERYVPRASYFQCVQREIKPHMRKMLAYWMLEVCEEQRCEEEVFPLAMNYLDRYLSCVPTRKAQLQLLGAVCMLLASKLRETTPLTIEKLCIYTDHAVSPRQLRDWEVLVLGKLKWDLAAVIAHDFLAFILHRLSLPRDRQALVKKHAQTFLALCATDYTFAMYPPSMIATGSIGAAVQGLGACSMSGDELTELLAGITGTEVDCLRACQEQIEAALRESLREASQTSSSPAPKAPRGSSSQGPSQTSTPTDVTAIHL

Variants of: B1
Details: with if4e_human EIF4E

effect of a mutation on the interaction	Variant
with no effect	N355S

Variants of: B1
Details: with fhl3_human FHL3, Q13643
Sequence of fhl3_human FHL3, Q13643 (Q13643 whole entry): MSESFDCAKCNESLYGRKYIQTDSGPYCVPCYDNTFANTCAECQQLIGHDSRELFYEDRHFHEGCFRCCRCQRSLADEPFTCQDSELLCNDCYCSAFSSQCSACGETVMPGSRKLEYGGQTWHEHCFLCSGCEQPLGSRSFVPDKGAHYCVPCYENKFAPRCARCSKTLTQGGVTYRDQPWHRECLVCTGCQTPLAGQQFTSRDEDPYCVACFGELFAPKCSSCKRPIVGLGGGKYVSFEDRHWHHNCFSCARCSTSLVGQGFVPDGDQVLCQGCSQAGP

effect of a mutation on the interaction	Variant
disrupting interaction strength	N355S

Variants of: B1
Details: with bmp7_human BMP7, P18075
Sequence of bmp7_human BMP7, P18075 (P18075 whole entry): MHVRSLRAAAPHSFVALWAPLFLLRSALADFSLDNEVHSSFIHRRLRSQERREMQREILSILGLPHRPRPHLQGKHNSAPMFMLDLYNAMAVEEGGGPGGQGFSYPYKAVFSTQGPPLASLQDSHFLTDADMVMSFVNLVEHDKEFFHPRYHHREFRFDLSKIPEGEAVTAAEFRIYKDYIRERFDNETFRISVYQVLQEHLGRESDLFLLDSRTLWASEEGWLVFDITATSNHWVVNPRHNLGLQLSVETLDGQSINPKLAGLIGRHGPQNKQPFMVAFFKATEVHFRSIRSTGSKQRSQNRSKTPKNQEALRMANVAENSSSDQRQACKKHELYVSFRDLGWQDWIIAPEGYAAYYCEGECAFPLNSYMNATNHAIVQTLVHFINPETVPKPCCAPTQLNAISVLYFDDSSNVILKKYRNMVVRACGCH

effect of a mutation on the interaction	Variant
with no effect	N355S

Variants of: B1
Details: with ercc3_human ERCC3, P19447
Sequence of ercc3_human ERCC3, P19447 (P19447 whole entry): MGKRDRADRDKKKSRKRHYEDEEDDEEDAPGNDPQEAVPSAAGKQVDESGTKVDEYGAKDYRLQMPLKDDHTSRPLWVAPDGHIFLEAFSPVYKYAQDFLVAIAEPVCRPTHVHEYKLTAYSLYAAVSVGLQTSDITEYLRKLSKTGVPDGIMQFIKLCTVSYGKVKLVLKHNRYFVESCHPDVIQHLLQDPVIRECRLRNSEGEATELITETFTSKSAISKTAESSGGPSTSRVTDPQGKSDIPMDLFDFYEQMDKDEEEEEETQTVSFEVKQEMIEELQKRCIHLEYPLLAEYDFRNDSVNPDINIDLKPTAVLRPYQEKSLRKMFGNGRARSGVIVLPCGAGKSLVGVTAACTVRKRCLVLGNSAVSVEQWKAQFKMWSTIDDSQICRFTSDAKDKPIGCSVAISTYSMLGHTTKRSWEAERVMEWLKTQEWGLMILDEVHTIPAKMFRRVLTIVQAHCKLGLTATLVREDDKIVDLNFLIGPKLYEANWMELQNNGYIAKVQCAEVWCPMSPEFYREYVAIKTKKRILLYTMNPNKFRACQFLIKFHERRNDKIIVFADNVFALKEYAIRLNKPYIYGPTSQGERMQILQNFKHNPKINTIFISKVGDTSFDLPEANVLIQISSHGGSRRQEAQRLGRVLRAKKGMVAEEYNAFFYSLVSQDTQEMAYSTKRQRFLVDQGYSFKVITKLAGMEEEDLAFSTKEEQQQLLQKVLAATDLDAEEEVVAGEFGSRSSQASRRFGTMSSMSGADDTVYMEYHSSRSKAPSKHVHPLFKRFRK

effect of a mutation on the interaction	Variant
with no effect	N355S

Variants of: B2
Details: with use1_human USE1, Q9NZ43

effect of a mutation on the interaction	Variant
with no effect	D20E

Variants of: B3
Details: with pr20e_human PRR20E

effect of a mutation on the interaction	Variant
with no effect	S59C

Variants of: B3
Details: with rbpms_human RBPMS

effect of a mutation on the interaction	Variant
with no effect	S59C

Variants of: B4
Details: with serf2_human SERF2, P84101

effect of a mutation on the interaction	Variant
disrupting interaction strength	S9Y
with no effect	M270I
with no effect	V78I

Variants of: B5
Details: with kctd9_human KCTD9, Q7L273

effect of a mutation on the interaction	Variant
disrupting interaction strength	I646T
with no effect	S703F
disrupting interaction strength	L715S
disrupting interaction strength	R483Q

Variants of: B6
Details: with fer3l_human FERD3L

effect of a mutation on the interaction	Variant
with no effect	R23H

Variants of: B7
Details: with nxt1_human NXT1, Q9UKK6

effect of a mutation on the interaction	Variant
with no effect	T9K

Variants of: B7
Details: with nxt1_human NXT1, Q9UKK6
Remark: another data set of the same source

effect of a mutation on the interaction	Variant
disrupting interaction strength	R409W

Variants of: B8
Details: with cdk6_human CDK6, Q00534
Sequence of cdk6_human CDK6, Q00534 (Q00534 whole entry): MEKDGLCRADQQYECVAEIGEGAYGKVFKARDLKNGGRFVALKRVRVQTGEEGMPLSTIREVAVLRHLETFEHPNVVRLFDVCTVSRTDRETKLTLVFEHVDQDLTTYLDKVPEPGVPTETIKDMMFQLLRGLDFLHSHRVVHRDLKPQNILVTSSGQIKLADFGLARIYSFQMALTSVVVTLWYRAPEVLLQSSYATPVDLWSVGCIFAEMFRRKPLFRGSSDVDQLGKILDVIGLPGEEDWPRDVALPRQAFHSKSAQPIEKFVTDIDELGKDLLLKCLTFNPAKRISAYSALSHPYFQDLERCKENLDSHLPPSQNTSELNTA

effect of a mutation on the interaction	Variant
with no effect	E253D
with no effect	A266V

Variants of: B8
Details: with cdn1a_human CDKN1A

effect of a mutation on the interaction	Variant
with no effect	E253D

Variants of: B8
Details: with cdk4_human CDK4, P11802

effect of a mutation on the interaction	Variant
with no effect	A266V
with no effect	S259A

Variants of: B8
Details: with tfp11_human TFIP11, Q9UBB9
Sequence of tfp11_human TFIP11, Q9UBB9 (Q9UBB9 whole entry): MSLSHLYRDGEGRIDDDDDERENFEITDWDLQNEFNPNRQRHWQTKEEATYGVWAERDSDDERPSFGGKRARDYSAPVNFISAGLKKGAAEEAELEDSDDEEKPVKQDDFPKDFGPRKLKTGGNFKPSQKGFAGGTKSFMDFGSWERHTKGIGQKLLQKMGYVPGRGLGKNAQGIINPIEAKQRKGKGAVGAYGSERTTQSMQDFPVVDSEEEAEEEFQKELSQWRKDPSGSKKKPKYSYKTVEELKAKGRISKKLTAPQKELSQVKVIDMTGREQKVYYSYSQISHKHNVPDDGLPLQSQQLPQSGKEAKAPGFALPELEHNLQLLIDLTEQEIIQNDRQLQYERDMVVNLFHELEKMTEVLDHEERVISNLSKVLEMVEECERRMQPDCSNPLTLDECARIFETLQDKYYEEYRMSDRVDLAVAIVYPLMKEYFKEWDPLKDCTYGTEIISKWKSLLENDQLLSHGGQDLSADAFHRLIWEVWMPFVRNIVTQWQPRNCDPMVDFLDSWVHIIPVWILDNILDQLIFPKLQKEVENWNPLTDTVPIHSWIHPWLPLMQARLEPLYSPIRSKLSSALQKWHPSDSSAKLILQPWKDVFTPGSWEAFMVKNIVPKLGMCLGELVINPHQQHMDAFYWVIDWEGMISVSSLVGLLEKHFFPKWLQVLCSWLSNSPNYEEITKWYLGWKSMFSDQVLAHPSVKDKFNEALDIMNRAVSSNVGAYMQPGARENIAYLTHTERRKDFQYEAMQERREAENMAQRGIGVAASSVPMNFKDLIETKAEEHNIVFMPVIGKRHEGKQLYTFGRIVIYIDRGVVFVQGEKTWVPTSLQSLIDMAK

effect of a mutation on the interaction	Variant
with no effect	S259A
